Measurements: publication PMC5445526
One block for each substance: values may come before it.

How the values were obtained:
AXB-(GB1)2 [1] = test: MALDI-TOF mass spectrometry
AXB-(GB1)2 [2] = test: SEC + other: SDS-PAGE with gel densitometry
AXB-(GB1)2 [3] = test: SDS-PAGE with gel densitometry
AXB-(GB1)2 [4] = test: SEC
(GB1)2-BXA [5] = test: MALDI-TOF mass spectrometry
(GB1)2-BXA [6] = test: SEC + other: SDS-PAGE with gel densitometry
(GB1)2-BXA [7] = test: SDS-PAGE with gel densitometry
(GB1)2-BXA [8] = test: SEC
(GB1)2-AXB [9] = test: MALDI-TOF mass spectrometry
(GB1)2-AXB [10] = test: SEC + other: SDS-PAGE with gel densitometry
(GB1)2-AXB [11] = test: SDS-PAGE with gel densitometry
(GB1)2-AXB [12] = test: SEC
BXA-(GB1)2 [13] = test: MALDI-TOF mass spectrometry
BXA-(GB1)2 [14] = test: SEC + other: SDS-PAGE with gel densitometry
BXA-(GB1)2 [15] = test: SDS-PAGE with gel densitometry
BXA-(GB1)2 [16] = test: SEC

stoichiometry N (AXB-(GB1)2 [1]): 2
overall catenation efficiency (%) (AXB-(GB1)2 [2]): 66%
dimer content by SDS-PAGE densitometry (%) (AXB-(GB1)2 [3]): 80%
stoichiometry N (AXB-(GB1)2 [4]): 2
Substance: AXB-(GB1)2
dimer content by SEC (%) (SEC): 82%

stoichiometry N ((GB1)2-BXA [5]): 2
overall catenation efficiency (%) ((GB1)2-BXA [6]): 76%
dimer content by SDS-PAGE densitometry (%) ((GB1)2-BXA [7]): 83%
stoichiometry N ((GB1)2-BXA [8]): 2
Substance: (GB1)2-BXA
dimer content by SEC (%) (SEC): 92%

stoichiometry N ((GB1)2-AXB [9]): 2
overall catenation efficiency (%) ((GB1)2-AXB [10]): 73%
dimer content by SDS-PAGE densitometry (%) ((GB1)2-AXB [11]): 93%
stoichiometry N ((GB1)2-AXB [12]): 2
Substance: (GB1)2-AXB
dimer content by SEC (%) (SEC): 78%

stoichiometry N (BXA-(GB1)2 [13]): 2
overall catenation efficiency (%) (BXA-(GB1)2 [14]): 83%
dimer content by SDS-PAGE densitometry (%) (BXA-(GB1)2 [15]): 86%
stoichiometry N (BXA-(GB1)2 [16]): 2
Substance: BXA-(GB1)2
dimer content by SEC (%) (SEC): 97%
